# According to patent US20180155451A1 (published 2018):
# B1: GpH7-A5/GpH7-B3 variant K334_01G/GpL16-k0 (antibody, human IgG1, kappa)
# heavy 1: not shown
# heavy 2: not shown
# light: DIVMTQSPLSLPVTPGEPASISCQASESLVHSNRNTYLHWYLQKPGQSPQLLIYKVSNRFSGVPDRFSGSGSGTDFTLKISRVEAEDVGVYYCSQNTHVPPTFGQGTKVEIERTVAAPSVFIFPPSDEQLKSGTASVVCLLNNFYPREAKVQWKVDNALQSGNSQESVTEQDSKDSTYSLSSTLTLSKADYEKHKVYACEVTHQGLSSPVTKSFNRGEC
# notes: heterodimerized IgG1, mutation in one H chain only; also called He Ab
# B2: GpH7-A5/GpH7-B3 variant A330_04F/GpL16-k0 (antibody, human IgG1, kappa)
# heavy 1: not shown
# heavy 2: not shown
# light: B1 light
# notes: as for B1
# B3: GpH7-A5/GpH7-B3 variant A330_08L/GpL16-k0 (antibody, human IgG1, kappa)
# heavy 1: not shown
# heavy 2: not shown
# light: B1 light
# notes: as for B1
# B4: GpH7-A5/GpH7-B3 variant A330_20W/GpL16-k0 (antibody, human IgG1, kappa)
# heavy 1: not shown
# heavy 2: not shown
# light: B1 light
# notes: as for B1
# B5: GpH7-A5/GpH7-B3 variant E333_16H/GpL16-k0 (antibody, human IgG1, kappa)
# heavy 1: not shown
# heavy 2: not shown
# light: B1 light
# notes: as for B1
# B6: GpH7-A5/GpH7-B3 variant H268_09D/GpL16-k0 (antibody, human IgG1, kappa)
# heavy 1: not shown
# heavy 2: not shown
# light: B1 light
# notes: as for B1
# B7: GpH7-A5/GpH7-B3 variant H268_10E/GpL16-k0 (antibody, human IgG1, kappa)
# heavy 1: not shown
# heavy 2: not shown
# light: B1 light
# notes: as for B1
# B8: GpH7-A5/GpH7-B3 variant H268_13S/GpL16-k0 (antibody, human IgG1, kappa)
# heavy 1: not shown
# heavy 2: not shown
# light: B1 light
# notes: as for B1
# B9: GpH7-A5/GpH7-B3 variant I332_01G/GpL16-k0 (antibody, human IgG1, kappa)
# heavy 1: not shown
# heavy 2: not shown
# light: B1 light
# notes: as for B1
# B10: GpH7-A5/GpH7-B3 variant I332_02A/GpL16-k0 (antibody, human IgG1, kappa)
# heavy 1: not shown
# heavy 2: not shown
# light: B1 light
# notes: as for B1
# B11: GpH7-A5/GpH7-B3 variant I332_09D/GpL16-k0 (antibody, human IgG1, kappa)
# heavy 1: not shown
# heavy 2: not shown
# light: B1 light
# notes: as for B1
# B12: GpH7-A5/GpH7-B3 variant I332_10E/GpL16-k0 (antibody, human IgG1, kappa)
# heavy 1: not shown
# heavy 2: not shown
# light: B1 light
# notes: as for B1
# B13: GpH7-A5/GpH7-B3 variant I332_13S/GpL16-k0 (antibody, human IgG1, kappa)
# heavy 1: not shown
# heavy 2: not shown
# light: B1 light
# notes: as for B1
# B14: GpH7-A5/GpH7-B3 variant I332_14T/GpL16-k0 (antibody, human IgG1, kappa)
# heavy 1: not shown
# heavy 2: not shown
# light: B1 light
# notes: as for B1
# B15: GpH7-A5/GpH7-B3 variant I332_15Y/GpL16-k0 (antibody, human IgG1, kappa)
# heavy 1: not shown
# heavy 2: not shown
# light: B1 light
# notes: as for B1
# B16: GpH7-A5/GpH7-B3 variant I332_19Q/GpL16-k0 (antibody, human IgG1, kappa)
# heavy 1: not shown
# heavy 2: not shown
# light: B1 light
# notes: as for B1
# B17: GpH7-A5/GpH7-B3 variant I336_02A/GpL16-k0 (antibody, human IgG1, kappa)
# heavy 1: not shown
# heavy 2: not shown
# light: B1 light
# notes: as for B1
# B18: GpH7-A5/GpH7-B3 variant I336_03V/GpL16-k0 (antibody, human IgG1, kappa)
# heavy 1: not shown
# heavy 2: not shown
# light: B1 light
# notes: as for B1
# B19: GpH7-A5/GpH7-B3 variant I336_06M/GpL16-k0 (antibody, human IgG1, kappa)
# heavy 1: not shown
# heavy 2: not shown
# light: B1 light
# notes: as for B1
# B20: GpH7-A5/GpH7-B3 variant I336_09D/GpL16-k0 (antibody, human IgG1, kappa)
# heavy 1: not shown
# heavy 2: not shown
# light: B1 light
# notes: as for B1
# B21: GpH7-A5/GpH7-B3 variant I336_10E/GpL16-k0 (antibody, human IgG1, kappa)
# heavy 1: not shown
# heavy 2: not shown
# light: B1 light
# notes: as for B1
# B22: GpH7-A5/GpH7-B3 variant I336_13S/GpL16-k0 (antibody, human IgG1, kappa)
# heavy 1: not shown
# heavy 2: not shown
# light: B1 light
# notes: as for B1
# B23: GpH7-A5/GpH7-B3 variant I336_14T/GpL16-k0 (antibody, human IgG1, kappa)
# heavy 1: not shown
# heavy 2: not shown
# light: B1 light
# notes: as for B1
# B24: GpH7-A5/GpH7-B3 variant I336_18N/GpL16-k0 (antibody, human IgG1, kappa)
# heavy 1: not shown
# heavy 2: not shown
# light: B1 light
# notes: as for B1
# B25: GpH7-A5/GpH7-B3 variant K326_03V/GpL16-k0 (antibody, human IgG1, kappa)
# heavy 1: not shown
# heavy 2: not shown
# light: B1 light
# notes: as for B1
# B26: GpH7-A5/GpH7-B3 variant K326_04F/GpL16-k0 (antibody, human IgG1, kappa)
# heavy 1: not shown
# heavy 2: not shown
# light: B1 light
# notes: as for B1
# B27: GpH7-A5/GpH7-B3 variant K326_06M/GpL16-k0 (antibody, human IgG1, kappa)
# heavy 1: not shown
# heavy 2: not shown
# light: B1 light
# notes: as for B1
# B28: GpH7-A5/GpH7-B3 variant K326_07I/GpL16-k0 (antibody, human IgG1, kappa)
# heavy 1: not shown
# heavy 2: not shown
# light: B1 light
# notes: as for B1
# B29: GpH7-A5/GpH7-B3 variant K326_08L/GpL16-k0 (antibody, human IgG1, kappa)
# heavy 1: not shown
# heavy 2: not shown
# light: B1 light
# notes: as for B1
# B30: GpH7-A5/GpH7-B3 variant K326_09D/GpL16-k0 (antibody, human IgG1, kappa)
# heavy 1: not shown
# heavy 2: not shown
# light: B1 light
# notes: as for B1
# Target: T1, FcγRIIIa extracellular domain with C-terminal His tag (human, UniProt P08637 17-208)
# T1 construct: extracellular domain; also called FcgRIIIa; 3a
# T1 sequence (P08637 17-208): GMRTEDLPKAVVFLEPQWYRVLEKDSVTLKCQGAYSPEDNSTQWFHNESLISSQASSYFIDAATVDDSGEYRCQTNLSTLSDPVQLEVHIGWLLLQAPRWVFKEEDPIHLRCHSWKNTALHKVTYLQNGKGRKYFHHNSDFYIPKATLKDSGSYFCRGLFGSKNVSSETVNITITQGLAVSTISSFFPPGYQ
# Assay: SPR, relative to GpH7-A5/GpH7-B3/GpL16-k0
row,He/Con_3a,Binder
1,121 % of control (=100),B1
2,147 % of control (=100),B2
3,124 % of control (=100),B3
4,104 % of control (=100),B4
5,103 % of control (=100),B5
6,197 % of control (=100),B6
7,186 % of control (=100),B7
8,122 % of control (=100),B8
9,111 % of control (=100),B9
10,112 % of control (=100),B10
11,207 % of control (=100),B11
12,233 % of control (=100),B12
13,104 % of control (=100),B13
14,120 % of control (=100),B14
15,101 % of control (=100),B15
16,110 % of control (=100),B16
17,111 % of control (=100),B17
18,112 % of control (=100),B18
19,109 % of control (=100),B19
20,106 % of control (=100),B20
21,119 % of control (=100),B21
22,102 % of control (=100),B22
23,108 % of control (=100),B23
24,104 % of control (=100),B24
25,122 % of control (=100),B25
26,103 % of control (=100),B26
27,115 % of control (=100),B27
28,139 % of control (=100),B28
29,114 % of control (=100),B29
30,134 % of control (=100),B30
